Patent US20100310509A1 (published 2010)
Each block holds one binder with its values, some of them ahead of it.

Key:
[1] = biological target: T1, soluble human OSMR (Oncostatin M receptor) (human, UniProt Q99650 28-740); experiment: SPR (SensiQ), OSM-M2 immobilised, soluble OSMR injected (150nM, 100nM, 50nM, 25nM, 10nM, 5nM)
T1 construct: extracellular domain; Bought; also called soluble OSMR
T1 sequence (looked up): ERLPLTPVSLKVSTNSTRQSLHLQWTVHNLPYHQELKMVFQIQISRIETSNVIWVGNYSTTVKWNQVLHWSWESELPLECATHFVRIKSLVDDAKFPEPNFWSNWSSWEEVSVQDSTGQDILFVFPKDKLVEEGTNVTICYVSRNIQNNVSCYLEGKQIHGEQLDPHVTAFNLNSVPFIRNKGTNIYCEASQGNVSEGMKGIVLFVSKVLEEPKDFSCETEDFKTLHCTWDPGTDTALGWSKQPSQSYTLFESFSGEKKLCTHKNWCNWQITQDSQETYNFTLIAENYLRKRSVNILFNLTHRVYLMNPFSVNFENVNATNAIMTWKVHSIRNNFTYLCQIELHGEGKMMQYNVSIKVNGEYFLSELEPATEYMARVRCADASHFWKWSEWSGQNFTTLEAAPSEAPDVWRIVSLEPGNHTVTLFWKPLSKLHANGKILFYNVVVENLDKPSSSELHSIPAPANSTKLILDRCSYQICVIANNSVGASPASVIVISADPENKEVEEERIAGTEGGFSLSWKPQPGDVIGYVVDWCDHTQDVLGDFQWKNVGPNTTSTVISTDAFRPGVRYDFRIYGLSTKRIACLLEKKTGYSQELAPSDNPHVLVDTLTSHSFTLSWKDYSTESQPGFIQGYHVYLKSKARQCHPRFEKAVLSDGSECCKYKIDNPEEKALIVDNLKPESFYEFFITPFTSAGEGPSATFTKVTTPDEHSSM
Description: (§1) Surface Plasmon Resonance (SPR): Kinetic parameters of the interactions between receptor domains and the cytokines LIF, OSM-WT, OSM-M1 or OSM-M2 were analyzed by SPR using the SENSIQ® system (ICX Technologies, Oklahoma City, Okla.) as described by the manufacturer protocol. Briefly, a carboxyl sensor with two channels was installed in SENSIQ® and allowed to thermally equilibrate for about 15 minutes. The channels were initially cleaned with a 3 minute injection of 0.1 M HCl. An activation solution of 2 mM 1-Ethyl-3-[3-dimethylaminopropyl]carbodiimide hydrochloride (EDC) and 0.5 mM N-hydroxysulfo succinimide (NHS) was prepared in deionized water immediately before injection. Activation solution was injected over both channels for approximately 3 minutes followed by a 10 minute injection of 50 μg/mL cytokine (LIF, OSM-WT, OSM-M1 or OSM-M2) in 10 mM acetate buffer, pH 5.0, over channel 1. […] Unreacted NHS esters were capped with a 3 minute injection of 1 M ethanolamine, pH 8.0, over both channels. […] A concentration series of soluble LIFR (# 249-LR-050/CF, R&D Systems, Minneapolis, Minn.), soluble OSMR (# 4389-OR-50, R&D Systems, Minneapolis, Minn.) or soluble gp130 (# 228-GP-050/CF, R&D Systems, Minneapolis, Minn.) in running buffer (10 mM HEPES pH 7.4, 150 mM NaCl, 3.4 mM EDTA, 0.005% Tween-20) were injected over both channels at a flow rate of 25 μl/min. […]

[2] = biological target: T1, soluble human OSMR (Oncostatin M …); experiment: SPR (SensiQ), LIF immobilised, soluble OSMR injected (150nM, 100nM, 50nM, 25nM, 10nM, 5nM)
Description: as §1

[3] = biological target: T1, soluble human OSMR (Oncostatin M …); experiment: SPR (SensiQ), OSM-WT immobilised, soluble OSMR injected (150nM, 100nM, 50nM, 25nM, 10nM, 5nM)
Description: as §1

binding result [1]: no binding (tested: 150 nM)
B1: OSM-M2 (OSM with BC loop truncated from 12 to 4 amino acids) (ligand)
chain: AAIGSCSKEYRVLLGQLQKQTDLMQDTSRLLDPYIRIQGLDVPKLREHCRERPGAFPSEETLRGLGRRGFLQTLNATLGCVLHRLADLEQRLGGGNIEDLEKLQMARPNILGLRNNIYCMAQLLDNSDTAEPTKAGAGASQPPTPTPASDAFQRKLEGCRFLHGYHRFMHSVGRVFSKWGESPN
notes: Made from the 'AGA' modified OSM template; lacks the thrombin site; not shown: N-terminal FLAG tag left after thrombin removal of GST

binding result [2]: no binding (tested: 150 nM)
B2: human leukemia inhibitory factor (LIF) (ligand)
chain: not shown
notes: Purified recombinant protein; also called hLIF

binding result [3]: no binding (tested: 150 nM)
B3: OSM-WT ('AGA' modified human Oncostatin M, referred to as wild-type OSM) (ligand)
chain: AAIGSCSKEYRVLLGQLQKQTDLMQDTSRLLDPYIRIQGLDVPKLREHCRERPGAFPSEETLRGLGRRGFLQTLNATLGCVLHRLADLEQRLPKAQDLERSGLNIEDLEKLQMARPNILGLRNNIYCMAQLLDNSDTAEPTKAGAGASQPPTPTPASDAFQRKLEGCRFLHGYHRFMHSVGRVFSKWGESPN
notes: also called hOSM with AGA modification; not shown: N-terminal FLAG tag left after thrombin removal of GST
